The record followed here is patent publication US8293494 (UNIVERSITATSKLINIKUM FREIBURG, dated 2012).

One experiment concerns the target TAP-LSD1 (UniProt O60341 1-852). The experiment can be described thus: TAP-LSD1 complexes immobilised on IgG sepharose, Western blot. The source says: Protein complexes were immobilised on IgG, sepharose, released from IgG sepharose by TEV protease cleavage of the TAP tag, followed by immunoprecipitation of Flag-tagged AR with α-Flag antibody. […] Ten percent of the extract used for immunoprecipitation was loaded as input.
LSD1 associated complexes were released from IgG sepharose by TEV protease cleavage of the TAP-tag followed by immunoprecipitation of Flag-tagged AR with α-Flag antibody. […] We applied the TAP-based co-purification strategy because the moderate expression levels of the endogenous proteins would only have allowed a limited number of purification steps.

For a further experiment, the target named is T1, GFP-JHDM2A (UniProt Q9Y4C1 1-1321).
T1 construct: not shown: GFP fusion partner
T1 sequence (looked up): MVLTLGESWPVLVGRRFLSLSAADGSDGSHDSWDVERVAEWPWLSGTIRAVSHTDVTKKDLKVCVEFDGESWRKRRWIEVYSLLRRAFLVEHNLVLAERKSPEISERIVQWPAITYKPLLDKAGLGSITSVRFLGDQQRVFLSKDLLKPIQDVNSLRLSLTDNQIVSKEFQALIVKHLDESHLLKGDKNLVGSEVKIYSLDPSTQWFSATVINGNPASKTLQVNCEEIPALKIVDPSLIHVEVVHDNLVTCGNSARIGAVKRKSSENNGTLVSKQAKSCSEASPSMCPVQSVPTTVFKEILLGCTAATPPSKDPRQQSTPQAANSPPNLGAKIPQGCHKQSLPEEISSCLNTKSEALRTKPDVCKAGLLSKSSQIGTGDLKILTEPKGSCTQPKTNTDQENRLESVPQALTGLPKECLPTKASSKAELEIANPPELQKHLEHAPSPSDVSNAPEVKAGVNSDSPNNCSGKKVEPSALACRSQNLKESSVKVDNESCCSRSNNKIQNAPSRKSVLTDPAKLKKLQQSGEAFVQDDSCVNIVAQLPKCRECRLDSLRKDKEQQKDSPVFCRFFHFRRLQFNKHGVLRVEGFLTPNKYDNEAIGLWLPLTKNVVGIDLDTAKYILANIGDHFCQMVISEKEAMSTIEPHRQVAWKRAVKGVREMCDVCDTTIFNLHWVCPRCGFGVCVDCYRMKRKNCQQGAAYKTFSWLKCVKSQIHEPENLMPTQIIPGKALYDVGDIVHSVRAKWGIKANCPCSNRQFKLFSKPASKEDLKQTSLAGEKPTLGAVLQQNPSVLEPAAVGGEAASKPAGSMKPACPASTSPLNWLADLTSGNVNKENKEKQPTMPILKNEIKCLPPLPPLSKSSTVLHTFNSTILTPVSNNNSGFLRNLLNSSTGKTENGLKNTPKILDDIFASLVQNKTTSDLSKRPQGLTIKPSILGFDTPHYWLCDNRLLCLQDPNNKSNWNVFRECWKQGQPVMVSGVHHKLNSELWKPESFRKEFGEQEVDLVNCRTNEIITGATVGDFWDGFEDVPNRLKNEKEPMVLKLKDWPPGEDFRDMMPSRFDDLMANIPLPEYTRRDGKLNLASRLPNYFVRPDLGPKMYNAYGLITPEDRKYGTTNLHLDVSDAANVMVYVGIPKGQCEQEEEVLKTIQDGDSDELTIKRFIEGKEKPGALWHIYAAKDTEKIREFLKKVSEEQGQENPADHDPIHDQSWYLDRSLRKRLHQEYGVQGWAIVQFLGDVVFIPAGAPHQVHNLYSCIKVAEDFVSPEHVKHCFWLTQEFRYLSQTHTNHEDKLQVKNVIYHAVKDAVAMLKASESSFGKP
As to the kind of experiment: co-immunoprecipitation with α-Flag from transfected 293 cells, Western blot with α-GFP. From the text: Extracts were immunoprecipitated with α-Flag antibody. Twenty percent of the extract used for immunoprecipitation was loaded as input. Western blots were decorated with α-GFP (Santa Cruz; 1:500) or α-Flag antibody (1:2500).

For experiment [1], the target named is LSD1 (endogenous, LNCaP cells) (human, UniProt O60341 1-852). The experiment can be described thus: Re-ChIP in LNCaP cells.
Experimental: LNCaP cells were incubated with or without the AR agonist R1881 (a, b), and transfected with stealth RNAi (b). ChIP or Re-ChIP was performed with the indicated antibodies. The precipitated chromatin was amplified by PCR using primers flanking the promoter region (ARE I+II) and the enhancer region (ARE III) of the PSA gene, the promoter region (ARE) of the KLK2 gene, or the promoters of the unrelated GAPDH and U6 genes. […] Western blots were decorated with the indicated antibodies against α-mono-, α-di-, or α-trimethyl H3K9.
ChIP experiments were performed as described[3]. LNCaP cells were treated for 45 min (FIG. 2a) or 210 min in the presence or absence of 10^-8 M R1881 as indicated. LNCaP cells were transfected three days before harvesting for ChIP with or without stealth RNAi (Invitrogen) following the manufacturer's instructions. […] For PCR, 1-5 µl out of 50 d DNA extract was used. For Re-ChIP assays, immunoprecipitations were sequentially washed with TSE I, TSE II, buffer III, and TE[20]. Complexes were eluted by incubation with 10 mM DTT at 37° C. for 30 minutes, diluted 50 times with dilution buffer[20] followed by a second immunoprecipitation with the indicated antibodies.

B1: V5-JMJD2C (enzyme)
chain: MEVAEVESPLNPSCKIMTFRPSMEEFREFNKYLAYMESKGAHRAGLAKVIPPKEWKPRQCYDDIDNLLIPAPIQQMVTGQSGLFTQYNIQKKAMTVKEFRQLANSGKYCTPRYLDYEDLERKYWKNLTFVAPIYGADINGSIYDEGVDEWNIARLNTVLDVVEEECGISIEGVNTPYLYFGMWKTTFAWHTEDMDLYSINYLHFGEPKSWYAIPPEHGKRLERLAQGFFPSSSQGCDAFLRHKMTLISPSVLKKYGIPFDKITQEAGEFMITFPYGYHAGFNHGFNCAESTNFATVRWIDYGKVAKLCTCRKDMVKISMDIFVRKFQPDRYQLWKQGKDIYTIDHTKPTPASTPEVKAWLQRRRKVRKASRSFQCARSTSKRPKADEEEEVSDEVDGAEVPNPDSVTDDLKVSEKSEAAVKLRNTEASSEEESSASRMQVEQNLSDHIKLSGNSCLSTSVTEDIKTEDDKAYAYRSVPSISSEADDSIPLSSGYEKPEKSDPSELSWPKSPESCSSVAESNGVLTEGEESDVESHGNGLEPGEIPAVPSGERNSFKVPSIAEGENKTSKSWRHPLSRPPARSPMTLVKQQAPSDEELPEVLSIEEEVEETESWAKPLIHLWQTKSPNFAAEQEYNATVARMKPHCAICTLLMPYHKPDSSNEENDARWETKLDEVVTSEGKTKPLIPEMCFIYSEENIEYSPPNAFLEEDGTSLLISCAKCCVRVHASCYGIPSHEICDGWLCARCKRNAWTAECCLCNLRGGALKQTKNNKWAHVMCAVAVPEVRFTNVPERTQIDVGRIPLQRLKLKCIFCRHRVKRVSGACIQCSYGRCPASFHVTCAHAAGVLMEPDDWPYVVNITCFRHKVNPNVKSKACEKVISVGQTVITKHRNTRYYSCRVMAVTSQTFYEVMFDDGSFSRDTFPEDIVSRDCLKLGPPAEGEVVQVKWPDGKLYGAKYFGSNIAHMYQVEFEDGSQIAMKREDIYTLDEELPKRVKARFSTASDMRFEDTFYGADIIQGERKRQRVLSSRFKNEYVADPVYRTFLKSSFQKKCQKRQ
notes: also called CMX-DEST51-JMJD2C; not shown: V5 tag
Take B1: in the experiment with TAP-LSD1, the binding result is given as “binds”.

B2: Flag-JMJD2C (enzyme, human, UniProt Q9H3R0 1-1056, looked up)
chain: MEVAEVESPLNPSCKIMTFRPSMEEFREFNKYLAYMESKGAHRAGLAKVIPPKEWKPRQCYDDIDNLLIPAPIQQMVTGQSGLFTQYNIQKKAMTVKEFRQLANSGKYCTPRYLDYEDLERKYWKNLTFVAPIYGADINGSIYDEGVDEWNIARLNTVLDVVEEECGISIEGVNTPYLYFGMWKTTFAWHTEDMDLYSINYLHFGEPKSWYAIPPEHGKRLERLAQGFFPSSSQGCDAFLRHKMTLISPSVLKKYGIPFDKITQEAGEFMITFPYGYHAGFNHGFNCAESTNFATVRWIDYGKVAKLCTCRKDMVKISMDIFVRKFQPDRYQLWKQGKDIYTIDHTKPTPASTPEVKAWLQRRRKVRKASRSFQCARSTSKRPKADEEEEVSDEVDGAEVPNPDSVTDDLKVSEKSEAAVKLRNTEASSEEESSASRMQVEQNLSDHIKLSGNSCLSTSVTEDIKTEDDKAYAYRSVPSISSEADDSIPLSSGYEKPEKSDPSELSWPKSPESCSSVAESNGVLTEGEESDVESHGNGLEPGEIPAVPSGERNSFKVPSIAEGENKTSKSWRHPLSRPPARSPMTLVKQQAPSDEELPEVLSIEEEVEETESWAKPLIHLWQTKSPNFAAEQEYNATVARMKPHCAICTLLMPYHKPDSSNEENDARWETKLDEVVTSEGKTKPLIPEMCFIYSEENIEYSPPNAFLEEDGTSLLISCAKCCVRVHASCYGIPSHEICDGWLCARCKRNAWTAECCLCNLRGGALKQTKNNKWAHVMCAVAVPEVRFTNVPERTQIDVGRIPLQRLKLKCIFCRHRVKRVSGACIQCSYGRCPASFHVTCAHAAGVLMEPDDWPYVVNITCFRHKVNPNVKSKACEKVISVGQTVITKHRNTRYYSCRVMAVTSQTFYEVMFDDGSFSRDTFPEDIVSRDCLKLGPPAEGEVVQVKWPDGKLYGAKYFGSNIAHMYQVEFEDGSQIAMKREDIYTLDEELPKRVKARFSTASDMRFEDTFYGADIIQGERKRQRVLSSRFKNEYVADPVYRTFLKSSFQKKCQKRQ
notes: also called CMX-Flag-JMJD2C; not shown: Flag tag
Take B2: the binding result with GFP-JHDM2A is “no binding”.

B3: JMJD2C (endogenous, LNCaP cells) (enzyme)
chain: MEVAEVESPLNPSCKIMTFRPSMEEFREFNKYLAYMESKGAHRAGLAKVIPPKEWKPRQCYDDIDNLLIPAPIQQMVTGQSGLFTQYNIQKKAMTVKEFRQLANSGKYCTPRYLDYEDLERKYWKNLTFVAPIYGADINGSIYDEGVDEWNIARLNTVLDVVEEECGISIEGVNTPYLYFGMWKTTFAWHTEDMDLYSINYLHFGEPKSWYAIPPEHGKRLERLAQGFFPSSSQGCDAFLRHKMTLISPSVLKKYGIPFDKITQEAGEFMITFPYGYHAGFNHGFNCAESTNFATVRWIDYGKVAKLCTCRKDMVKISMDIFVRKFQPDRYQLWKQGKDIYTIDHTKPTPASTPEVKAWLQRRRKVRKASRSFQCARSTSKRPKADEEEEVSDEVDGAEVPNPDSVTDDLKVSEKSEAAVKLRNTEASSEEESSASRMQVEQNLSDHIKLSGNSCLSTSVTEDIKTEDDKAYAYRSVPSISSEADDSIPLSSGYEKPEKSDPSELSWPKSPESCSSVAESNGVLTEGEESDVESHGNGLEPGEIPAVPSGERNSFKVPSIAEGENKTSKSWRHPLSRPPARSPMTLVKQQAPSDEELPEVLSIEEEVEETESWAKPLIHLWQTKSPNFAAEQEYNATVARMKPHCAICTLLMPYHKPDSSNEENDARWETKLDEVVTSEGKTKPLIPEMCFIYSEENIEYSPPNAFLEEDGTSLLISCAKCCVRVHASCYGIPSHEICDGWLCARCKRNAWTAECCLCNLRGGALKQTKNNKWAHVMCAVAVPEVRFTNVPERTQIDVGRIPLQRLKLKCIFCRHRVKRVSGACIQCSYGRCPASFHVTCAHAAGVLMEPDDWPYVVNITCFRHKVNPNVKSKACEKVISVGQTVITKHRNTRYYSCRVMAVTSQTFYEVMFDDGSFSRDTFPEDIVSRDCLKLGPPAEGEVVQVKWPDGKLYGAKYFGSNIAHMYQVEFEDGSQIAMKREDIYTLDEELPKRVKARFSTASDMRFEDTFYGADIIQGERKRQRVLSSRFKNEYVADPVYRTFLKSSFQKKCQKRQ
notes: Endogenous protein, on chromatin (ChIP / Re-ChIP)
In the case of B3, in experiment [1], the binding result is listed as “binds”.

B4: Flag-AR (receptor)
chain: MEVQLGLGRVYPRPPSKTYRGAFQNLFQSVREVIQNPGPRHPEAASAAPPGASLLLLQQQQQQQQQQQQQQQQQQQQQQQETSPRQQQQQQGEDGSPQAHRRGPTGYLVLDEEQQPSQPQSALECHPERGCVPEPGAAVAASKGLPQQLPAPPDEDDSAAPSTLSLLGPTFPGLSSCSADLKDILSEASTMQLLQQQQQEAVSEGSSSGRAREASGAPTSSKDNYLGGTSTISDNAKELCKAVSVSMGLGVEALEHLSPGEQLRGDCMYAPLLGVPPAVRPTPCAPLAECKGSLLDDSAGKSTEDTAEYSPFKGGYTKGLEGESLGCSGSAAAGSSGTLELPSTLSLYKSGALDEAAAYQSRDYYNFPLALAGPPPPPPPPHPHARIKLENPLDYGSAWAAAAAQCRYGDLASLHGAGAAGPGSGSPSAAASSSWHTLFTAEEGQLYGPCGGGGGGGGGGGGGGGGGGGGGGGEAGAVAPYGYTRPPQGLAGQESDFTAPDVWYPGGMVSRVPYPSPTCVKSEMGPWMDSYSGPYGDMRLETARDHVLPIDYYFPPQKTCLICGDEASGCHYGALTCGSCKVFFKRAAEGKQKYLCASRNDCTIDKFRRKNCPSCRLRKCYEAGMTLGARKLKKLGNLKLQEEGEASSTTSPTEETTQKLTVSHIEGYECQPIFLNVLEAIEPGVVCAGHDNNQPDSFAALLSSLNELGERQLVHVVKWAKALPGFRNLHVDDQMAVIQYSWMGLMVFAMGWRSFTNVNSRMLYFAPDLVFNEYRMHKSRMYSQCVRMRHLSQEFGWLQITPQEFLCMKALLLFSIIPVDGLKNQKFFDELRMNYIKELDRIIACKRKNPTSCSRRFYQLTKLLDSVQPIARELHQFTFDLLIKSHMVSVDFPEMMAEIISVQVPKILSGKVKPIYFHTQ
notes: Plasmid described previously; Assays in the presence of R1881; also called Flag-tagged AR; not shown: Flag tag
Regarding B4, the binding result in the experiment with TAP-LSD1 is reported as “binds”.
